The stoichiometry N is a count of units in the complex or per binding partner.

This experiment addresses RbcL (large subunit of form I ribulose 1,5-bisphosphate carboxylase oxygenase) (Synechococcus sp. PCC 7335). The experiment can be described thus: cryo-EM structure; single-particle cryo-EM of form I Rubisco found in the same fraction; 2.35 Å, D4 symmetry.

“RbcL (large subunit of form I ribulose 1,5-bisphosphate carboxylase oxygenase) (enzyme)” registered a stoichiometry N of 8.

Source of the values: paper PMC10810746.
